Measurements published in paper PMC9410896.

T1: MucR1 (Sinorhizobium fredii CCBAU45436, UniProt C3M8K5 1-143, A8T;V56I)
T1 sequence: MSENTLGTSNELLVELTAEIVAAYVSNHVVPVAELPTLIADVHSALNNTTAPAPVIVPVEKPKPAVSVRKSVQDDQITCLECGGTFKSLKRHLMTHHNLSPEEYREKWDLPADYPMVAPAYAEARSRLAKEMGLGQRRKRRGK

B1: motif_b3 (dsDNA)
DNA 1: ATGCTTCCAAGTTGTTTAGGT
DNA 2: ACCTAAACAACTTGGAAGCAT
B2: spacer S2 (primer name spacer1) (dsDNA)
DNA 1: GCCCAGTTCTACTCCATTTTTAGTAGAAA
DNA 2: TTTCTACTAAAAATGGAGTAGAACTGGGC
B3: motif_a1 (dsDNA)
DNA 1: GTTGTTTAGGTATTTTTTGGGGAATTGAAT
DNA 2: ATTCAATTCCCCAAAAAATACCTAAACAAC
B4: motif_b4 (dsDNA)
DNA 1: TTATATTGACCGACTGAGATA
DNA 2: TATCTCAGTCGGTCAATATAA
B5: motif_b7 (dsDNA)
DNA 1: ATTGATATATCCATAGACAAC
DNA 2: GTTGTCTATGGATATATCAAT
B6: spacer S4 (dsDNA)
DNA 1: AAACATTGACTGTATATAATTTTA
DNA 2: TAAAATTATATACAGTCAATGTTT
B7: motif_b5 (dsDNA)
DNA 1: TTTAAATCACCTATTTATATT
DNA 2: AATATAAATAGGTGATTTAAA
B8: motif_b6 (dsDNA)
DNA 1: ATAGACAACGCAAAGTATTGA
DNA 2: TCAATACTTTGCGTTGTCTAT
B9: spacer S1 (primer name spacer2) (dsDNA)
DNA 1: GCCCAGTTCTACTCCATTTT
DNA 2: AAAATGGAGTAGAACTGGGC
B10: spacer S3 (dsDNA)
DNA 1: AATTATCGGGATCGGGGGATAATGACA
DNA 2: TGTCATTATCCCCCGATCCCGATAATT
B11: motif_b1(2) (dsDNA)
DNA 1: GGTATTTTTTGGGGAATTGAAT
DNA 2: ATTCAATTCCCCAAAAAATACC
B12: motif_b8 (dsDNA)
DNA 1: CAATTGTATTGATATATCCAT
DNA 2: ATGGATATATCAATACAATTG

molecular target: T1, MucR1; test: EMSA

Binding result, binds:
B1, B2, B3, B4, B5, B6, B7, B8, B9, B10, B11

molecular target: T1, MucR1; test: EMSA; remark: another data set of the same source

Binding result, binds:
B12
